In publication PMC3079584, “A Cytoplasmic Complex Mediates Specific mRNA Recognition and Localization in Yeast” (PLoS Biology, 2011):

Assays:
She2p (wild type) [1] = biological target: T1, She2p (wild type) (Saccharomyces cerevisiae, UniProt P36068 1-246); experiment: SEC; analytical; She2p, His-She3p C-terminal fragment and RNA (ternary complex formation, Figure 4E); which RNA is not told in the legend; conditions: both partners purified
T1 construct: She2p, Saccharomyces cerevisiae, Gene ID 853728; also called She2p (wt); wild-type She2p

She2p (wild type) [2] = biological target: T1, She2p (wild type); experiment: pull-down; His-tagged She3p (full length, point mutants, or MBP-She3p fragment-His) on nickel sepharose, no RNA; 7.5–10 µM of each protein, HNMD-buffer (20 mM HEPES pH 7.8, 200 mM NaCl, 2 mM MgCl2, 2 mM DTT) with 30–50 mM imidazole, 30–60 min at 4°C; SDS-PAGE, Coomassie; conditions: both partners purified

T1 sequence (P36068 whole entry, the tested form may be a part): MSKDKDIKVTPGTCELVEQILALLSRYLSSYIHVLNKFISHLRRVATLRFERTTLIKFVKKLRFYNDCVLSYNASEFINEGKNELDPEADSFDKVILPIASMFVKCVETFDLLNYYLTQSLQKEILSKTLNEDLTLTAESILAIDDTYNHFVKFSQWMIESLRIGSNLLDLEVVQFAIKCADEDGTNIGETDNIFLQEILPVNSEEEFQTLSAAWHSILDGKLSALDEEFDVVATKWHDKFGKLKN

binding result (She2p (wild type) [1])	binding result (She2p (wild type) [2])	Binder
binds		His-She3p (334–425) (domain or fragment, Saccharomyces cerevisiae, it precedes G334 at the N-terminus of the construct) GPLGSMGNSSNNKRRSFYTASPLLSSGSIPKSASPVLPGVKRTASVRKPSSSSSKTNVTHNNDPSTSPTISVPPGVTRTVSSTHKKKGNSMVVHGAQS
	binds	MBP-She3p(334–425)-His (domain or fragment, Saccharomyces cerevisiae, UniProt P38272 334-425, looked up) GNSSNNKRRSFYTASPLLSSGSIPKSASPVLPGVKRTASVRKPSSSSSKTNVTHNNDPSTSPTISVPPGVTRTVSSTHKKKGNSMVVHGAQS
	binds	MBP-She3p(354–425)-His (domain or fragment, Saccharomyces cerevisiae, UniProt P38272 354-425, looked up) GSIPKSASPVLPGVKRTASVRKPSSSSSKTNVTHNNDPSTSPTISVPPGVTRTVSSTHKKKGNSMVVHGAQS
